T1: GST–regnase-1^D141N (human, UniProt Q5D1E8 1-599, D141N)
T1 sequence (looked up): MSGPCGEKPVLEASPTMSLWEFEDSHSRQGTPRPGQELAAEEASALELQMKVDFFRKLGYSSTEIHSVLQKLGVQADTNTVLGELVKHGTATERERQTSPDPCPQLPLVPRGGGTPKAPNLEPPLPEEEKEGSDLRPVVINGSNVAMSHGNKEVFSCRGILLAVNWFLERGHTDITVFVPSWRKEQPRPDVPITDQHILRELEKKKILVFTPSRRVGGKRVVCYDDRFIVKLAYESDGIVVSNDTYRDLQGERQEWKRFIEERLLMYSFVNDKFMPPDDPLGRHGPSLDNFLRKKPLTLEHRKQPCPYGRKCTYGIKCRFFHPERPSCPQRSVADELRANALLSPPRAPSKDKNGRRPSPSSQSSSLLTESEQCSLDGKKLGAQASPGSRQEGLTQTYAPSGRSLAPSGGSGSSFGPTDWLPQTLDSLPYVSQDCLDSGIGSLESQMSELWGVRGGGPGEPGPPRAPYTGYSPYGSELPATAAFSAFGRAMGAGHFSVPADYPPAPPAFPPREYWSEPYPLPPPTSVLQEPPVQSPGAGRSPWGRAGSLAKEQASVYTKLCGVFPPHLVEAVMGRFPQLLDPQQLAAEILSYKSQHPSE


Biological target: T1, GST–regnase-1^D141N
Assay: pull-down

| fold reduction of binding against SUMO–roquin-1^aa2-440 wild type [fold] | Binder |
| --- | --- |
| 2 | Roquin-1^aa2-440;E212K (domain or fragment, UniProt Q4VGL6 2-440, looked up) PVQAPQWTDFLSCPICTQTFDETIRKPISLGCGHTVCKMCLNKLHRKACPFDQTTINTDIELLPVNSALLQLVGAQIPEQQPITLCSGVEDTKHYEEAKKCVEELALYLKPLSSARGVGLNSTTQSVLSRPMQRKLVTLVHCQLVEEEGRIRAMRAARSLGERTVTELILQHQNPQQLSSNLWAAVRARGCQFLGPAMQEEALKLVLLALKDGSALSRKVLVLFVVQRLEPRFPQASKTSIGHVVQLLYRASCFKVTKRDEDSSLMQLKEEFRTYEALRREHDSQIVQIAMEAGLRIAPDQWSSLLYGDQSHKSHMQSIIDKLQTPASFAQSVQELTIALQRTGDPANLNRLRPHLELLANIDPSPDAPPPTWEQLENGLVAVRTVVHGLVDYIQNHSKKGADQQQPPQHSKYKTYMCRDMKQRGGCPRGASCTFAHSQ |
| 2 | Roquin-1^aa2-440;M199R (domain or fragment, UniProt Q4VGL6 2-440, looked up) PVQAPQWTDFLSCPICTQTFDETIRKPISLGCGHTVCKMCLNKLHRKACPFDQTTINTDIELLPVNSALLQLVGAQIPEQQPITLCSGVEDTKHYEEAKKCVEELALYLKPLSSARGVGLNSTTQSVLSRPMQRKLVTLVHCQLVEEEGRIRAMRAARSLGERTVTELILQHQNPQQLSSNLWAAVRARGCQFLGPARQEEALKLVLLALEDGSALSRKVLVLFVVQRLEPRFPQASKTSIGHVVQLLYRASCFKVTKRDEDSSLMQLKEEFRTYEALRREHDSQIVQIAMEAGLRIAPDQWSSLLYGDQSHKSHMQSIIDKLQTPASFAQSVQELTIALQRTGDPANLNRLRPHLELLANIDPSPDAPPPTWEQLENGLVAVRTVVHGLVDYIQNHSKKGADQQQPPQHSKYKTYMCRDMKQRGGCPRGASCTFAHSQ |
| 2 | Roquin-1^aa2-440;L209Y (domain or fragment, UniProt Q4VGL6 2-440, looked up) PVQAPQWTDFLSCPICTQTFDETIRKPISLGCGHTVCKMCLNKLHRKACPFDQTTINTDIELLPVNSALLQLVGAQIPEQQPITLCSGVEDTKHYEEAKKCVEELALYLKPLSSARGVGLNSTTQSVLSRPMQRKLVTLVHCQLVEEEGRIRAMRAARSLGERTVTELILQHQNPQQLSSNLWAAVRARGCQFLGPAMQEEALKLVLYALEDGSALSRKVLVLFVVQRLEPRFPQASKTSIGHVVQLLYRASCFKVTKRDEDSSLMQLKEEFRTYEALRREHDSQIVQIAMEAGLRIAPDQWSSLLYGDQSHKSHMQSIIDKLQTPASFAQSVQELTIALQRTGDPANLNRLRPHLELLANIDPSPDAPPPTWEQLENGLVAVRTVVHGLVDYIQNHSKKGADQQQPPQHSKYKTYMCRDMKQRGGCPRGASCTFAHSQ |

Source: publication PMC8996344 (Nature immunology, 2021)
